Measurements reported in the supplement of paper PMC9942255.
Where “and” joins values, the source holds several entries; their conditions need not be identical. Identical values can stand only once.

System: Bacillus subtilis DB104 (SP-AmyQ fusion secretion)
Assay: AmyQ secretion efficiency, weighted average sort bin (1 = best secretion, 10 = worst) (bin number (weighted average, 1-10)); higher = lower secretion efficiency
In short: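 The secretion score gives the average bin number weighted by read frequency and normalised to beads per bin, with low-abundance sequences excluded. Bins were 10 equally populated green/red fluorescence ratio fractions of occupied ~65 nL alginate beads, sorted by large-particle flow cytometry. The beads held fluorescein-starch and about 0.3 cells each of an amyE-integrated B. subtilis DB104 library fusing designed signal peptides to mature AmyQ, and they were grown about 13 h at room temperature and stained with nile red before sorting and Illumina sequencing.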

Sequence	AmyQ secretion efficiency
MIQKRKRTVSFRLVLMCTLLFVSLPITKTSAVNG [wt_amyQ]	1.16
MIRSISIFITCLLITLLTMGGMIASPASAAGT	2.35
MISKKLWISLLFALTLIFTMAFSNMSAQAAGK	1.95
MITAAAVLLSLGLVFGFSYGAGHVAEAKTK	3.09
MITTIVITCVMAASLTLGSLLPAGYASAKED	4.06
MIVIILLFISIIVFLKRKKKKIQPQPS	8.16
MIVIILLFISIIVFLSVIQPQPD	4.48
MIVIILLFISIIVFLSVIQPQPS	8.27 and 5.9 and 6.5
MIVIILLFISIIVFLVVTIQPQPS	8.71
MIVIKRKRKRIIVFLSVIQPQPS	8.52
MIVIMSFNLIILLFISIIVFLSVIQPQPS	6.9
MIVIRKRKISIIVFLSVIQPQPS	5.82
MIVLSTIITFNFIILLFISIIVFLSVIQPQPS	5.66
MIVSRQTRQRIIVFLSVIQPQPS	6.7
MKFVKRRGSRGQTTSTLSVTSLFALQPSAKAAEH	5.84
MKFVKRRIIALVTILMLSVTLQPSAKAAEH	3.15
MKFVKRRIIALVTILMLSVTSLFADEEEAKAAEH	2.36
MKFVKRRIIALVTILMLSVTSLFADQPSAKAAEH	3.52
MKFVKRRIIALVTILMLSVTSLFAKKRRRAKAAEH	7.85
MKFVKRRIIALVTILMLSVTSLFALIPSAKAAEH	2.54
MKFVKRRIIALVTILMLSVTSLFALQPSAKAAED	2.86
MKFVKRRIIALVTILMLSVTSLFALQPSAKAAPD	2.11
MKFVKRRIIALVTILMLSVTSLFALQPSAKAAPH	2.38
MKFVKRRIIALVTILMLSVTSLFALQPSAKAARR	1.74
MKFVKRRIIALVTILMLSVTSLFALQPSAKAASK	2.32
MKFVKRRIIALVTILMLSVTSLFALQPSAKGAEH	3.59

Sequence	AmyQ secretion efficiency
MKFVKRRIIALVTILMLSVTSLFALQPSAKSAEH	2.64
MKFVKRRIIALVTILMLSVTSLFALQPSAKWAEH	5.19
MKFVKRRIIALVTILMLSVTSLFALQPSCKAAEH	2.68
MKFVKRRIIALVTILMLSVTSLFALQPSFTPSPFFTVAKAAEH	2.95
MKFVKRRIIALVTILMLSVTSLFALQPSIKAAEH	3.57
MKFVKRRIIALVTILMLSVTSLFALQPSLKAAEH	2.75
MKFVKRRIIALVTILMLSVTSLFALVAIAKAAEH	4.46
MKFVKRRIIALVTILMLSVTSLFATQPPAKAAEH	2.78
MKFVKRRIRKKRRRLMLSVTSLFALQPSAKAAEH	6.62
MKFVKRRIRRKRTILMLSVTSLFALQPSAKAAEH	3.06
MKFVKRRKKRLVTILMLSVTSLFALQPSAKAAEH	2.78
MKGWMRTTLVVLFTIVTFGLVSPPAALMADKP	7.14
MKIRKIKKKKRKSFGMLISAVPALAAGT	7.53
MKIRKIKKSSALSFGMLISAVPALAAGT	4.2
MKIRKILLMMALFFMMLISAVPALAAGT	2.45
MKIRKILLSSALSFGMLEDDDEDALAAGT	5.74
MKIRKILLSSALSFGMLEDEVPALAAGT	2.62
MKIRKILLSSALSFGMLEEDDPALAAGT	2.69
MKIRKILLSSALSFGMLISAVPALAAEE	2.95
MKIRKILLSSALSFGMLISAVPALAAGR	2.62
MKIRKILLSSALSFGMLISAVPALAAKK	1.84
MKIRKILLSSALSFGMLISAVPALARKR	5.61
MKIRKILLSSALSFGMLISAVPALFAGT	5.97
MKIRKILLSSALSFGMLISAVPALGAGT	3.88
MKIRKILLSSALSFGMLISAVPALLAGT	4.82
MKIRKILLSSALSFGMLISAVPALMAGT	6.44

Sequence	AmyQ secretion efficiency
MKIRKILLSSALSFGMLISAVPALNAGT	6.27
MKIRKILLSSALSFGMLISAVPALTAGT	4.42
MKIRKILLSSALSFGMLISAVPCLAAGT	2
MKIRKILLSSALSFGMLISAVPGLAAGT	3.97
MKIRKILLSSALSFGMLISAVPVLAAGT	3.66
MKIRKILLSSALSFGMLKDKVPALAAGT	6.36
MKIRKILLSSALSFGMLKKRRKKALAAGT	6.86
MKIRKILLSSALSFGMLLILTSISAVPALAAGT	2.99
MKIRKILLSSALSFGMLRKRVPALAAGT	6.53
MKIRKILLSSALSFGMLVISAVPALAAGT	2.24
MKIRKIRRRKALSFGMLISAVPALAAGT	5.54
MKIRKLIFNMFLILLSSALSFGMLISAVPALAAGT	3.62
MKIRKMFMFILLSSALSFGMLISAVPALAAGT	2.01
MKIRKQRGYTGLSFGMLISAVPALAAGT	6.92
MKIVLLSALLLLLFAFEPSASGKKL	4.93
MKKAAAVLLSLGGFSYGAGHVAEAKTK	6.38
MKKAAAVLLSLGLVFDESYGAGHVAEAKTK	2.18
MKKAAAVLLSLGLVFDKGYEPGHVAEAKTK	2.85
MKKAAAVLLSLGLVFEDEDEAGHVAEAKTK	5.2
MKKAAAVLLSLGLVFFLLTSGFSYGAGHVAEAKTK	3.03
MKKAAAVLLSLGLVFGFSYGAEAKTK	2.21
MKKAAAVLLSLGLVFGFSYGAGHVAEAAED	3.87
MKKAAAVLLSLGLVFGFSYGAGHVAEAAKK	5.64
MKKAAAVLLSLGLVFGFSYGAGHVAEAATD	3.51
MKKAAAVLLSLGLVFGFSYGAGHVAEAATS	2.5
MKKAAAVLLSLGLVFGFSYGAGHVAEADDD	5.61

Sequence	AmyQ secretion efficiency
MKKAAAVLLSLGLVFGFSYGAGHVAECKTK	4.74
MKKAAAVLLSLGLVFGFSYGAGHVAEGKTK	2.6
MKKAAAVLLSLGLVFGFSYGAGHVAEKKTK	6.23
MKKAAAVLLSLGLVFGFSYGAGHVAELKTK	6.97
MKKAAAVLLSLGLVFGFSYGAGHVAENKTK	4.78
MKKAAAVLLSLGLVFGFSYGAGHVAESKTK	4.52
MKKAAAVLLSLGLVFGFSYGAGHVAETKTK	5.95
MKKAAAVLLSLGLVFGFSYGAGHVAEYKTK	6.37
MKKAAAVLLSLGLVFGFSYGAGHVDEAKTK	7.45
MKKAAAVLLSLGLVFGFSYGAGHVHEAKTK	5.32
MKKAAAVLLSLGLVFGFSYGAGHVKEAKTK	6.72
MKKAAAVLLSLGLVFGFSYGAGHVMEAKTK	5.11
MKKAAAVLLSLGLVFGFSYGAGHVNEAKTK	5.96
MKKAAAVLLSLGLVFGFSYGAGHVQEAKTK	7.17
MKKAAAVLLSLGLVFGFSYGAGHVREAKTK	7.77
MKKAAAVLLSLGLVFGFSYGAGHVVEAKTK	2.99
MKKAAAVLLSLGLVFGFSYGAGHVVPTAAEAKTK	4.57
MKKAAAVLLSLGLVFGFSYGAGHVWEAKTK	5.37
MKKAAAVLLSLGLVFGFSYGAGHVYEAKTK	5.94
MKKAAAVLLSLGLVFIFVFAAVHVAEAKTK	2.59
MKKAAAVLLSLGLVFKFSYGAGHVAEAKTK	3.2
MKKAAAVLLSLGLVFKKRRRKKHVAEAKTK	7.39
MKKAAAVLLSLGLVFVFVYGAGHVAEAKTK	2.4
MKKAAAVLLSLGLVFVGFSYGAGHVAEAKTK	1.71
MKKAFILSAAAAVGLFTFDDDQQASAKEL	2.77
MKKAFILSAAAAVGLFTFEEDEDEASAKEL	4.76

Sequence	AmyQ secretion efficiency
MKKAFILSAAAAVGLFTFGASAKEL	5.43
MKKAFILSAAAAVGLFTFGGVQQASAADD	3.55
MKKAFILSAAAAVGLFTFGGVQQASCKEL	2.66
MKKAFILSAAAAVGLFTFGGVQQASEKEL	6.66
MKKAFILSAAAAVGLFTFGGVQQASGKEL	3.67
MKKAFILSAAAAVGLFTFGGVQQASMKEL	5.04
MKKAFILSAAAAVGLFTFGGVQQASVKEL	6.39
MKKAFILSAAAAVGLFTFGGVQQFSAKEL	5.1
MKKAFILSAAAAVGLFTFGGVQQISAKEL	3.06
MKKAFILSAAAAVGLFTFGGVQQLSAKEL	3.38
MKKAFILSAAAAVGLFTFGGVQQMSAKEL	2.71
MKKAFILSAAAAVGLFTFGGVQQSSAKEL	4.21
MKKAFILSAAAAVGLFTFGGVQQVSAKEL	3.11
MKKAFILSAAAAVGLFTFIAVSVASAKEL	3.67
MKKAFILSAAAAVGLFTFKKKRRRASAKEL	7.21
MKKAFILSAAAAVGLFTFKRRQQASAKEL	7.06
MKKAFILSAAAAVGLFTFLILSFTGGVQQASAKEL	3.78
MKKAFILSAAAAVGLFTFSIGGVQQASAKEL	3.67
MKKAFILSAAAAVGLFTFTSVVGASAKEL	4.32
MKKAFLVFLMVVLVLMVFLTVKQQESVAQAKQL	3.05
MKKAFLVFLSVVLVTTVFLFVKQQESVAQAKQL	2.31
MKKAFLVFLSVVLVTTVFLRKKRRKVAQAKQL	6.27
